Data from the Immune Epitope Database (IEDB).
Blank lines part the entries; values can stand above or below the sequence they belong to.

Experiments:
HLA-A*26:01 [1] = assay: IEDB peptide-MHC binding, purified MHC/direct/fluorescence; filed as Kd, often an IC50 or EC50 that approximates it; ≥ and ≤ were set here for values at or beyond the usual limits of such assays
HLA-B*44:02 = assay: as above
HLA-A*24:03 [2] = assay: as above
HLA-B*07:02 [3] = assay: as above
HLA-B*08:01 = assay: as above
HLA-A*01:01 [4] = assay: as above
HLA-B*40:01 = assay: as above
HLA-B*27:05 = assay: as above
HLA-B*58:01 = assay: as above
HLA-A*02:01 [5] = assay: as above
HLA-A*69:01 [6] = assay: as above
HLA-A*03:01 [7] = assay: as above
HLA-C*14:02 = assay: as above
HLA-A*11:01 = assay: as above
HLA-B*39:01 = assay: IEDB peptide-MHC binding, purified MHC/competitive/fluorescence; filed as Kd, often an IC50 or EC50 that approximates it; ≥ and ≤ were set here for values at or beyond the usual limits of such assays
HLA-A*30:01 [8] = assay: as above; conditions: source organism: Human immunodeficiency virus 1
HLA-A*02:03 = assay: as above; conditions: source organism: Human immunodeficiency virus 1
HLA-B*15:01 [9] = assay: as above
HLA-A*02:06 = assay: as above; conditions: source organism: Human immunodeficiency virus 1
HLA-B*35:01 [10] = assay: as above; conditions: source organism: Francisella tularensis subsp. tularensis FSC198
HLA-B*35:01 [11] = assay: IEDB peptide-MHC binding, purified MHC/direct/fluorescence; filed as Kd, often an IC50 or EC50 that approximates it; ≥ and ≤ were set here for values at or beyond the usual limits of such assays
HLA-B*08:02 = assay: as above; conditions: source organism: Influenza A virus(A/swine/Shandong/fZC/2003(H9N2))
HLA-A*24:02 = assay: as above; conditions: source organism: Influenza A virus (A/tiger/Thailand/CU-T4/04(H5N1))
HLA-B*15:01 [12] = assay: as above
HLA-B*46:01 = assay: IEDB peptide-MHC binding, purified MHC/competitive/fluorescence; filed as Kd, often an IC50 or EC50 that approximates it; ≥ and ≤ were set here for values at or beyond the usual limits of such assays
HLA-B*07:02 [13] = assay: IEDB peptide-MHC binding, purified MHC/competitive/fluorescence; ≥ and ≤ were set here for values at or beyond the usual limits of such assays; conditions: source organism: Zaire ebolavirus
HLA-A*01:01 [14] = assay: IEDB peptide-MHC binding, purified MHC/competitive/fluorescence; filed as Kd, often an IC50 or EC50 that approximates it; ≥ and ≤ were set here for values at or beyond the usual limits of such assays
HLA-A*30:01 [15] = assay: IEDB peptide-MHC binding, purified MHC/direct/fluorescence; filed as Kd, often an IC50 or EC50 that approximates it; ≥ and ≤ were set here for values at or beyond the usual limits of such assays; conditions: source organism: Yersinia enterocolitica
HLA-A*31:01 = assay: as above
HLA-A*26:01 [16] = assay: IEDB peptide-MHC binding, purified MHC/competitive/fluorescence; filed as Kd, often an IC50 or EC50 that approximates it; ≥ and ≤ were set here for values at or beyond the usual limits of such assays; conditions: source organism: Streptococcus pneumoniae TIGR4
HLA-A*24:03 [17] = assay: as above; conditions: source organism: Streptococcus pneumoniae TIGR4
HLA-A*29:02 = assay: as above; conditions: source organism: Streptococcus pneumoniae TIGR4
HLA-B*18:01 = assay: as above; conditions: source organism: Streptococcus pneumoniae TIGR4
HLA-A*23:01 = assay: as above; conditions: source organism: Streptococcus pneumoniae TIGR4
HLA-B*27:03 = assay: as above; conditions: source organism: Streptococcus pneumoniae TIGR4
HLA-A*02:01 [18] = assay: as above; conditions: source organism: Streptococcus pneumoniae TIGR4
HLA-B*51:01 = assay: as above; conditions: source organism: Streptococcus pneumoniae TIGR4
HLA-A*69:01 [19] = assay: as above; conditions: source organism: Streptococcus pneumoniae TIGR4
HLA-B*15:17 = assay: as above; conditions: source organism: Streptococcus pneumoniae TIGR4
HLA-B*57:01 = assay: as above; conditions: source organism: Streptococcus pneumoniae TIGR4
HLA-A*03:01 [20] = assay: as above; conditions: source organism: Streptococcus pneumoniae TIGR4
[21] = source organism: Vibrio cholerae
[22] = source organism: Vibrio parahaemolyticus
[23] = source organism: Human immunodeficiency virus 1
[24] = source organism: Francisella tularensis subsp. holarctica LVS
[25] = source organism: Influenza A virus (A/Puerto Rico/8/34/Mount Sinai(H1N1))
[26] = source organism: Influenza A virus (A/tiger/Thailand/CU-T4/04(H5N1))
[27] = source organism: Yersinia enterocolitica
[28] = source organism: Haemophilus influenzae
[29] = source organism: Escherichia coli
[30] = source organism: Streptococcus pneumoniae TIGR4

Sequence: AYYWNQNGF
Kd (HLA-A*26:01 [1]; [21]): ≥ 20 µM
Kd (HLA-B*44:02; [21]): ≥ 20 µM
Kd (HLA-A*24:03 [2]; [22]): 0.00223 µM
Kd (HLA-B*07:02 [3]; [21]): ≥ 20 µM
Kd (HLA-B*08:01; [21]): ≥ 20 µM
Kd (HLA-A*01:01 [4]; [21]): ≥ 20 µM
Kd (HLA-B*40:01; [21]): ≥ 20 µM
Kd (HLA-B*27:05; [21]): ≥ 20 µM
Kd (HLA-B*58:01; [21]): ≥ 20 µM
Kd (HLA-A*02:01 [5]; [21]): ≥ 20 µM
Kd (HLA-A*69:01 [6]; [21]): ≥ 20 µM
Kd (HLA-A*03:01 [7]; [21]): ≥ 20 µM
Kd (HLA-C*14:02; source organism: Vibrio cholerae 2740-80): ≤ 0.001 µM
Kd (HLA-A*11:01; [22]): ≥ 20 µM

Sequence: EKLKSLFNTV
Kd (HLA-B*39:01; [23]): ≥ 20 µM
Kd (HLA-A*30:01 [8]): 1.14 µM
Kd (HLA-A*02:03): ≥ 20 µM
Kd (HLA-B*15:01 [9]; [23]): ≥ 20 µM
Kd (HLA-A*02:06): 0.343 µM

Sequence: AIYKNTIAY
Kd (HLA-A*03:01 [7]; [24]): 0.0069 µM
Kd (HLA-C*14:02; source organism: Francisella tularensis subsp. tularensis FSC198): 0.118 µM
Kd (HLA-A*11:01; [24]): 0.0239 µM
Kd (HLA-B*35:01 [10]): 0.0986 µM

Sequence: FVRTLFQQM
Kd (HLA-B*35:01 [11]; source organism: Influenza A virus(A/swine/Shandong/fZC/2003(H9N2))): 0.297 µM
Kd (HLA-B*08:02): ≥ 20 µM
Kd (HLA-B*07:02 [3]; [25]): 0.5 µM
Kd (HLA-B*08:01; [25]): 0.188 µM
Kd (HLA-A*24:02): ≥ 20 µM
Kd (HLA-A*01:01 [4]; [26]): ≥ 20 µM
Kd (HLA-B*40:01; [26]): ≥ 20 µM
Kd (HLA-B*27:05; [26]): ≥ 20 µM
Kd (HLA-B*58:01; [26]): ≥ 20 µM
Kd (HLA-A*02:01 [5]; [26]): ≥ 20 µM
Kd (HLA-A*69:01 [6]; [26]): ≥ 20 µM
Kd (HLA-A*03:01 [7]; [26]): ≥ 20 µM
Kd (HLA-B*15:01 [12]; [25]): 5.96 µM
Kd (HLA-A*11:01; [26]): ≥ 20 µM
Kd (HLA-B*46:01; source organism: Influenza A virus H3N2): ≥ 20 µM

Sequence: SPQSLTTKP
IC50 (HLA-B*07:02 [13]): ≥ 188 µM

Sequence: KSVFNSLY
Kd (HLA-A*01:01 [14]; source organism: Influenza A virus (A/X-31(H3N2))): 1.47 µM

Sequence: YIFRNTINM
Kd (HLA-B*35:01 [11]; [27]): 0.0827 µM
Kd (HLA-A*26:01 [1]; [27]): 0.729 µM
Kd (HLA-B*44:02; [27]): ≥ 20 µM
Kd (HLA-B*07:02 [3]; [27]): 7.86 µM
Kd (HLA-B*08:01; [27]): ≥ 20 µM
Kd (HLA-A*30:01 [15]): 1.79 µM
Kd (HLA-A*01:01 [4]; [27]): ≥ 20 µM
Kd (HLA-B*40:01; [27]): ≥ 20 µM
Kd (HLA-B*27:05; [27]): ≥ 20 µM
Kd (HLA-B*58:01; [27]): 0.508 µM
Kd (HLA-A*02:01 [5]; [27]): 0.222 µM
Kd (HLA-A*69:01 [6]; [27]): 0.2 µM
Kd (HLA-A*03:01 [7]; [27]): ≥ 20 µM
Kd (HLA-A*31:01; [27]): ≥ 20 µM
Kd (HLA-C*14:02; [27]): 0.12 µM
Kd (HLA-B*15:01 [12]; [27]): 0.298 µM
Kd (HLA-A*11:01; [27]): 7.78 µM

Sequence: LSTASSWSY
Kd (HLA-A*01:01 [14]; source organism: Influenza A virus (A/swine/Ohio/24366/2007(H1N1))): 0.261 µM

Kd (HLA-B*35:01 [11]; [28]): 0.0167 µM
Kd (HLA-A*26:01 [1]; [28]): ≥ 20 µM
Kd (HLA-A*24:03 [2]; [28]): ≥ 20 µM
Kd (HLA-B*07:02 [3]; [28]): ≥ 20 µM
Kd (HLA-B*08:01; [28]): ≥ 20 µM
Kd (HLA-A*01:01 [4]; [28]): 0.247 µM
Kd (HLA-B*40:01; [28]): ≥ 20 µM
Kd (HLA-B*27:05; [28]): ≥ 20 µM
Kd (HLA-B*58:01; [28]): ≥ 20 µM
Kd (HLA-A*02:01 [5]; [28]): ≥ 20 µM
Kd (HLA-A*69:01 [6]; [28]): ≥ 20 µM
Kd (HLA-A*03:01 [7]; [28]): ≥ 20 µM
Kd (HLA-A*31:01; [28]): ≥ 20 µM
Kd (HLA-B*15:01 [12]; [28]): 0.374 µM
Kd (HLA-A*11:01; [28]): ≥ 20 µM
Sequence: LAEQFSGEY

Kd (HLA-B*35:01 [11]; [29]): 4.76 µM
Kd (HLA-A*26:01 [1]; [29]): ≥ 20 µM
Kd (HLA-B*07:02 [3]; [29]): ≥ 20 µM
Kd (HLA-B*08:01; [29]): ≥ 20 µM
Kd (HLA-A*01:01 [4]; [29]): ≥ 20 µM
Kd (HLA-B*40:01; [29]): 2.92 µM
Kd (HLA-B*27:05; [29]): ≥ 20 µM
Kd (HLA-B*58:01; [29]): ≥ 20 µM
Kd (HLA-A*02:01 [5]; [29]): ≥ 20 µM
Kd (HLA-A*69:01 [6]; [29]): ≥ 20 µM
Kd (HLA-A*03:01 [7]; [29]): ≥ 20 µM
Kd (HLA-A*31:01; [29]): ≥ 20 µM
Kd (HLA-B*15:01 [12]; [29]): ≥ 20 µM
Kd (HLA-A*11:01; [29]): ≥ 20 µM
Sequence: SHDTIGPYY

Sequence: CLSDEINHV
Kd (HLA-A*26:01 [16]): ≥ 20 µM
Kd (HLA-A*24:03 [17]): ≥ 20 µM
Kd (HLA-B*39:01; [30]): ≥ 20 µM
Kd (HLA-B*46:01; [30]): ≥ 20 µM
Kd (HLA-A*29:02): ≥ 20 µM
Kd (HLA-B*18:01): ≥ 20 µM
Kd (HLA-A*23:01): ≥ 20 µM
Kd (HLA-B*27:03): ≥ 20 µM
Kd (HLA-A*02:01 [18]): 0.0109 µM
Kd (HLA-B*51:01): ≥ 20 µM
Kd (HLA-A*69:01 [19]): ≥ 20 µM
Kd (HLA-B*15:17): ≥ 20 µM
Kd (HLA-B*57:01): ≥ 20 µM
Kd (HLA-A*03:01 [20]): ≥ 20 µM
Kd (HLA-B*15:01 [9]; [30]): ≥ 20 µM
